Measured values: patent US20040106557
Entries after “also recorded” stand apart in the source; their conditions may differ.

What was measured:
[1] = test system: GST-B-2 (peptide B-2 expressed as glutathione S-transferase fusion protein)
[2] = test system: mercaptoethanol-reduced C4
[3] = test system: chemically synthesized peptide A-1 (A-1-1, A-1 parent)
[4] = target: insulin like growth factor-binding protein 3 (IGF-BP-3) (UniProt P17936)
[5] = test system: SKSKSKS-aca-CVAYCIEHHCWTC (SKSKSKS-tailed peptide C4)
Target sequence (chain, as listed by the source): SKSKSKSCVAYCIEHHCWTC

[6] = test system: chemically synthesized peptide C-4 without GA flanks (C-4-1, C4 parent)
[7] = test system: GST-C-4 (peptide C-4 expressed as glutathione S-transferase fusion protein)
[8] = test system: GST-A-1 (peptide A-1 expressed as glutathione S-transferase fusion protein)

Chain of insulin like growth factor-binding protein 3 (IGF-BP-3) (P17936 28-291): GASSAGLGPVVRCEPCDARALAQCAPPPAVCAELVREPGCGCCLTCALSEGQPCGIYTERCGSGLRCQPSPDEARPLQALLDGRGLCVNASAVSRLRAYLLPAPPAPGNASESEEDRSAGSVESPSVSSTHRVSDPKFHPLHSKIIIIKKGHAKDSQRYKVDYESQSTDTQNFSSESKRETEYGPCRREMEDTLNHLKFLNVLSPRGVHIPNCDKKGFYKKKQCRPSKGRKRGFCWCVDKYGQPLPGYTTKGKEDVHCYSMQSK

For “Prostate specific antigen (PSA), purified from human seminal fluid”, the “PSA activity against the chromogenic substrate S-2586 (A405)” value (shortened to “PSA activity”) [1] was “The enzyme activity of PSA was significantly enhanced by the GST-peptides”, the “PSA enzyme activity (A405) on substrate S-2586; PSA 0.33 µM” value [2] was “mercaptoethanol-reduced C4: curve lies on that of the PSA control over the whole time, about 0.095 at 95 min: no enhancement” and the “PSA enzyme activity (A405) on substrate S-2586; PSA 0.33 µM with 100 µL of C18 fractions of the Eu-labelling mixture of C4” value (Eu-labelled C4-peptide) was “at 60 min fraction 27 reaches about 0.043, fraction 26 about 0.037, fraction 28 about 0.024; all other fractions and the PSA control lie together at about 0.006-0.011”. For the same substance, the “cleavage of IGF-BP-3 by PSA (IGF-BP-3 IFMA), 100-fold molar excess of peptide” value [3] was “about 70% cleavage of IGF-BP-3”, the “decrease in IGF-BP-3 immunoreactivity (IFMA) after 16 h at 37 °C” value [4] was “PSA alone slowly cleaved IGF-BP-3 as revealed by an 30% decrease in immunoreactivity” and the “PSA enzyme activity (A405) on substrate S-2586; PSA 0.33 µM, peptide in 30-fold molar excess” value (125I-labeled C4) was 125-iodinated C4: rises to about 0.048 at 58 min, little above PSA alone (about 0.040) and far under C4 (about 0.070). For the same substance, the “PSA enzyme activity (A405 nm) on substrate S-2586; PSA 0.33 µM, peptide in 30-fold molar excess” value [5] was “SKSKSKS-tailed C4: rises linearly to about 0.060 at 65 min, just under non-tailed C4; PSA control about 0.021”, the “PSA enzyme activity (A405) on substrate S-2586; PSA 0.33 µM” value [6] was “Unlabelled C4: rises to about 0.16 at 95 min; PSA control about 0.095; also recorded: C4: rises to about 0.070 at 58 min; PSA alone about 0.040” and the “PSA enzyme activity (A405 nm) on substrate S-2586; PSA 0.33 µM, peptide in 30-fold molar excess” value [6] was “non-tailed C4: rises linearly to about 0.063 at 65 min; PSA control about 0.021”. The “cleavage of IGF-BP-3 by PSA (IGF-BP-3 IFMA), 100-fold molar excess of peptide” value [6] was “about 70% cleavage of IGF-BP-3”, the “PSA activity” value [7] was “stimulating PSA activity against the chromogenic substrate about 5-fold” and the “PSA enzyme activity (A405) on substrate S-2586; PSA 0.33 µM, peptide in 30-fold molar excess” value (Tc99m-labeled C4) was “C4-technetium-conjugate: rises to about 0.12 at 95 min, between unlabelled C4 (about 0.16) and the PSA control (about 0.095); wide error bars”. For the same substance, the “PSA activity” value [8] was “The enzyme activity of PSA was significantly enhanced by the GST-peptides”.
